{"source": "patent US20260185093", "tested_on": "T1, SpuFz1 (FZID16) (Spizellomyces punctatus)", "T1 sequence": "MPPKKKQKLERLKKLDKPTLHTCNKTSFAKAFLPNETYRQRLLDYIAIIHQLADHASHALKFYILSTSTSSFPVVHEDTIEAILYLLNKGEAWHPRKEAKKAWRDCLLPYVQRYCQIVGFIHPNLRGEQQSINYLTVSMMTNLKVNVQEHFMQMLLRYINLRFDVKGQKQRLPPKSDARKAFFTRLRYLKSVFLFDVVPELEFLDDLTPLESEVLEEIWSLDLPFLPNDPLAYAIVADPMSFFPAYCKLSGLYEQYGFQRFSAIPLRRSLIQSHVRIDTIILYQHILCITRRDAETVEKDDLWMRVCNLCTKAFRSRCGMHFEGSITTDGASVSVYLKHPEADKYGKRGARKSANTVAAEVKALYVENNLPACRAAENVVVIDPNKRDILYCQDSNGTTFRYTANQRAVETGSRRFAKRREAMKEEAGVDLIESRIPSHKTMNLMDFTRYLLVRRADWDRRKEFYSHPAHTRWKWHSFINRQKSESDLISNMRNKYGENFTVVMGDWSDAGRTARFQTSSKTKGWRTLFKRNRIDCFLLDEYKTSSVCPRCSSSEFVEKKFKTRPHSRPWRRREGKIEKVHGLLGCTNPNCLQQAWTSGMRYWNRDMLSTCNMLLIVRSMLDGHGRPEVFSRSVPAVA", "assay": "cell_activity", "conditions": "HEK293FT, TAM CATA"}
{"sequence": "GUCCACGGACUGCUGGGUUGUACCAACCCUAACUGUUUGCAGCAAGCCUGGACAUCGGGAAUGCGCUACUGGAAUCGAGAUAUGCUGUCAACCUGCAACAUGCUAUUGAUUGUGAGAUCAAUGUUGGAUGGACACGGUAGACCAGAAGUGUUCAGCAGGAGUGUUCCAGCCGUAGCGUAGAACGUAGAUUGGUUAGAUUAGGUUUUCCGAGCCGGUUGUCGCGCGGUUCAAUCCCUGGUGCGGGUGCUAGUGCCAAUACCCACCGGCUCCGCACUAGCAUUCCUUAACACAUCACU / GCATTCCTTAACACATCACT / AGTGATGTGTTAAGGAATGC", "values": [{"measurement": "activity", "setting": "gID7, longest initial scaffold", "value": 0.78, "unit": "% indel"}]}
{"sequence": "GUUUUCCGAGCCGGUUGUCGCGCGGUUCAAUCCCUGGUGCGGGUGCUAGUGCCAAUACCCACCGGCUCCGCACUAGCAUUCCUUAACACAUCACU / GCATTCCTTAACACATCACT / AGTGATGTGTTAAGGAATGC", "values": [{"measurement": "activity", "setting": "gID7, minimal omegaRNA", "value": 0.17, "unit": "% indel"}]}
